We go through 83 variants from the RNAGym collection of RNA variant scans (doi:10.1073/pnas.2313332121).

Sequences and labels used below:
B1: TPR t1 (parent)
chain: GACCAAUCUGCCCUCAGAGCUCGAGAACAUCUUCGGAUGCAGAGGAGGCAGGCUUCGGUGGCGCGAUAGCGCCAACGUCCUCAACCUCCAAUGCAUCCCACCACAUGAUGAUGCCUGAAGAGCCUUGGUUUUUUG

Variants of B1 are the subject of the data set. Put plainly: polymerase ribozyme fitness, log enrichment relative to wild type (log ratio); higher = more active; in vitro selection for triplet polymerase activity. The gist of the method: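 Mutant libraries of both subunits of a heterodimeric triplet polymerase ribozyme were PCR-built, transcribed, and selected once in triplicate, with frozen incubation at −7 °C and capture of gel-excised extended constructs on streptavidin beads before RT-PCR. Illumina sequencing of input and output libraries was filtered to genotypes with ≥10 input reads and ≥1 read per output. Fitness is the logarithm of genotype enrichment over wild-type enrichment, using inverse-variance-weighted replicate averages. The logarithm is base 2.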
For G42U G47U G60A U112A C114U G117C, the “polymerase ribozyme fitness (log ratio)” value was -5.02.

On to A5U C115U, for which the “polymerase ribozyme fitness (log ratio)” value was -1.6.

On to A5U G19A G69U C72G U112G, for which the “polymerase ribozyme fitness (log ratio)” value was -3.83.

As to G35U U112A, the “polymerase ribozyme fitness (log ratio)” value is -2.86.

Consider C12G G19C G23C U59C G60U, for which the “polymerase ribozyme fitness (log ratio)” value was -6.79.

Take C73G G113C: the “polymerase ribozyme fitness (log ratio)” value is -2.85.

For G47A G52A G61C G120A, the “polymerase ribozyme fitness (log ratio)” value was -4.97.

As for C72U G77C C114U, the “polymerase ribozyme fitness (log ratio)” value is -2.28.

C8U C73U G120A: the “polymerase ribozyme fitness (log ratio)” value stood at 1.89.

C85A G122A: the “polymerase ribozyme fitness (log ratio)” value was -1.14.

Consider C86U G93A C101G G122A, for which the “polymerase ribozyme fitness (log ratio)” value was -3.73.

In the case of C11A U14G G63A G71A A83G A91C C114U, the “polymerase ribozyme fitness (log ratio)” value was -5.74.

As for U92A C101A, the “polymerase ribozyme fitness (log ratio)” value is -3.47.

Turning to A2C C15U C104U, the “polymerase ribozyme fitness (log ratio)” value was -2.51.

On to G58A C85U, for which the “polymerase ribozyme fitness (log ratio)” value is -1.88.

On to C56U G61U C82A A91G C114U, for which the “polymerase ribozyme fitness (log ratio)” value was -6.55.

As for A18U A26G C56U C123G, the “polymerase ribozyme fitness (log ratio)” value was -0.0936.

On to C28A C88G G120A, for which the “polymerase ribozyme fitness (log ratio)” value is -3.89.

With G45C G51U G71C, the “polymerase ribozyme fitness (log ratio)” value was -4.44.

With G69U G110C, the “polymerase ribozyme fitness (log ratio)” value was -2.61.

In the case of G42C G52U, the “polymerase ribozyme fitness (log ratio)” value is -2.21.

As to A26U C40U, the “polymerase ribozyme fitness (log ratio)” value was -4.02.

On to A74G U112G U116A, for which the “polymerase ribozyme fitness (log ratio)” value was -1.07.

Regarding U81A A91U C101U, the “polymerase ribozyme fitness (log ratio)” value is -3.43.

For the variant A37U G60C C62U, the “polymerase ribozyme fitness (log ratio)” value was -2.01.

In the case of G63C C85A, the “polymerase ribozyme fitness (log ratio)” value is -3.22.

In the case of C40G C79U C101U G113U, the “polymerase ribozyme fitness (log ratio)” value was -4.09.

C8G G45C G48A U54G: the “polymerase ribozyme fitness (log ratio)” value is 0.0312.

With U96G C102A G127C, the “polymerase ribozyme fitness (log ratio)” value was -3.73.

As for G47A C72U A121U, the “polymerase ribozyme fitness (log ratio)” value worked out at 1.16.

As to A5G U32G A50C C101U G113C C114U U131C, the “polymerase ribozyme fitness (log ratio)” value was -5.64.

Take C12A U33G G48A A119G: the “polymerase ribozyme fitness (log ratio)” value was -5.25.

For A16U G69U G71U G117C, the “polymerase ribozyme fitness (log ratio)” value was -4.04.

With C20U G36C C89G, the “polymerase ribozyme fitness (log ratio)” value is -3.93.

Turning to A5G C13U A46U C56A C72G U78A G110A, the “polymerase ribozyme fitness (log ratio)” value was -3.02.

A2G C8A G51U U59G: the “polymerase ribozyme fitness (log ratio)” value was -2.18.

Consider G77A U87A A111U G122U, for which the “polymerase ribozyme fitness (log ratio)” value is -4.12.

With G39U G61A C85U, the “polymerase ribozyme fitness (log ratio)” value is -0.878.

For U21G A46C C49G, the “polymerase ribozyme fitness (log ratio)” value was -3.41.

Regarding A24U G117U, the “polymerase ribozyme fitness (log ratio)” value is -6.09.

With C31U G60U, the “polymerase ribozyme fitness (log ratio)” value was -4.38.

With G36C A46G G63U C85U C114U, the “polymerase ribozyme fitness (log ratio)” value is -5.92.

Take U87C G110U: the “polymerase ribozyme fitness (log ratio)” value is -0.496.

For U9C A43U C73U C79U A111G, the “polymerase ribozyme fitness (log ratio)” value was -0.526.

For the variant U9A C20G, the “polymerase ribozyme fitness (log ratio)” value was -2.47.

For U9G A50U A74C G113C, the “polymerase ribozyme fitness (log ratio)” value was -3.6.

With G36C G60A C98U, the “polymerase ribozyme fitness (log ratio)” value was -2.39.

For C70U G128A, the “polymerase ribozyme fitness (log ratio)” value is -2.28.

In the case of C31U C86A, the “polymerase ribozyme fitness (log ratio)” value was -5.09.

Consider G36A G69A C73G G120A, for which the “polymerase ribozyme fitness (log ratio)” value was -5.29.

With C62A G107A, the “polymerase ribozyme fitness (log ratio)” value was -5.05.

Turning to C89U A105U, the “polymerase ribozyme fitness (log ratio)” value was -2.8.

In the case of C15A G39C G117A, the “polymerase ribozyme fitness (log ratio)” value was -1.64.

For the variant A50G G63A, the “polymerase ribozyme fitness (log ratio)” value was -0.747.

With C11G C31A A41U C70G G113U, the “polymerase ribozyme fitness (log ratio)” value was -5.92.

In the case of C13U A46G G47U C82A, the “polymerase ribozyme fitness (log ratio)” value was -1.52.

Turning to G77C C85A, the “polymerase ribozyme fitness (log ratio)” value was -1.93.

C3U G71C G77A: the “polymerase ribozyme fitness (log ratio)” value was -5.92.

With A18C C56G C72U C124U, the “polymerase ribozyme fitness (log ratio)” value was -0.737.

Turning to G44U C56U U87C, the “polymerase ribozyme fitness (log ratio)” value was -1.16.

Take A41U U129A: the “polymerase ribozyme fitness (log ratio)” value was -2.58.

As to A5G G47U, the “polymerase ribozyme fitness (log ratio)” value is -1.19.

Regarding G61A A90G G128U, the “polymerase ribozyme fitness (log ratio)” value is -1.55.

C15U C53G C82A: the “polymerase ribozyme fitness (log ratio)” value was -1.78.

Consider C13U C28G G120C, for which the “polymerase ribozyme fitness (log ratio)” value is -1.05.

As for C56A A83G G135U, the “polymerase ribozyme fitness (log ratio)” value was -2.3.

For G47U G48A G52U, the “polymerase ribozyme fitness (log ratio)” value is -2.97.

On to G19C G71U G120U G122A C123U, for which the “polymerase ribozyme fitness (log ratio)” value was -3.78.

Consider C70U C73A C102U A118U, for which the “polymerase ribozyme fitness (log ratio)” value was -2.08.

On to C89G G127U, for which the “polymerase ribozyme fitness (log ratio)” value was -2.9.

Regarding U78C C123A, the “polymerase ribozyme fitness (log ratio)” value was 0.196.

Turning to A27U G51A A74C A83C, the “polymerase ribozyme fitness (log ratio)” value is -7.03.

As for C53U G77U U132A, the “polymerase ribozyme fitness (log ratio)” value is -0.78.

For U21A A29C, the “polymerase ribozyme fitness (log ratio)” value is -3.14.

Regarding C13U G110A, the “polymerase ribozyme fitness (log ratio)” value is -0.303.

On to C72U G77A A111U G113A, for which the “polymerase ribozyme fitness (log ratio)” value was -5.99.

On to C15A C56U U59C C64U A84U C98G G110A, for which the “polymerase ribozyme fitness (log ratio)” value was -7.69.

On to A5U G51A G113A C124A, for which the “polymerase ribozyme fitness (log ratio)” value was -3.34.

As for C53A U112G C124A, the “polymerase ribozyme fitness (log ratio)” value turned out to be 0.889.

U7A A16U C49U C124U: the “polymerase ribozyme fitness (log ratio)” value came out at 1.1.

In the case of U78C U96G, the “polymerase ribozyme fitness (log ratio)” value is -0.935.

Turning to G117U G120A, the “polymerase ribozyme fitness (log ratio)” value was -2.24.

Take G17U G60C A121G: the “polymerase ribozyme fitness (log ratio)” value was -0.0519.
